# How the values were obtained:
# Test in all cases: virus attachment assay at 4° C. on transfected L929 cells, immunostaining, Mander's co-localization coefficient
# [1] = molecular target: human tryptophanyl-tRNA synthetase (hWARS) on cells (human) (UniProt P23381)
# [2] = molecular target: human P-selectin glycoprotein ligand-1 (hPSGL1) on L929 cells (human) (UniProt Q14242)
# [3] = molecular target: human scavenger receptor class B member 2 (hSCARB2) on L929 cells (human) (UniProt Q14108)
# Sequence of UniProt Q14108 (Q14108 whole entry): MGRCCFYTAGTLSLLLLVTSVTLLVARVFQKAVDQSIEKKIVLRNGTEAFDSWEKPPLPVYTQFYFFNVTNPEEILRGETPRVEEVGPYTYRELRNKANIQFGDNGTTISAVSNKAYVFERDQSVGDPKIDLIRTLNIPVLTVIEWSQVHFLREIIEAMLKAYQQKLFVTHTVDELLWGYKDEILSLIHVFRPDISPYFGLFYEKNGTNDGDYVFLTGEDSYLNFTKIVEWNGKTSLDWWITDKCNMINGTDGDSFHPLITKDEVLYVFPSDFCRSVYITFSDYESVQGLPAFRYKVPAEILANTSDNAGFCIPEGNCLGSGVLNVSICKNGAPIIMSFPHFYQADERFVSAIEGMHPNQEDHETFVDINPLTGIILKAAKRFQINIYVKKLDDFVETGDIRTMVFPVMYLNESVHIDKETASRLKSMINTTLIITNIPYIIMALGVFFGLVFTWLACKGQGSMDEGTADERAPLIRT
# Sequence of UniProt P23381 (P23381 2-471): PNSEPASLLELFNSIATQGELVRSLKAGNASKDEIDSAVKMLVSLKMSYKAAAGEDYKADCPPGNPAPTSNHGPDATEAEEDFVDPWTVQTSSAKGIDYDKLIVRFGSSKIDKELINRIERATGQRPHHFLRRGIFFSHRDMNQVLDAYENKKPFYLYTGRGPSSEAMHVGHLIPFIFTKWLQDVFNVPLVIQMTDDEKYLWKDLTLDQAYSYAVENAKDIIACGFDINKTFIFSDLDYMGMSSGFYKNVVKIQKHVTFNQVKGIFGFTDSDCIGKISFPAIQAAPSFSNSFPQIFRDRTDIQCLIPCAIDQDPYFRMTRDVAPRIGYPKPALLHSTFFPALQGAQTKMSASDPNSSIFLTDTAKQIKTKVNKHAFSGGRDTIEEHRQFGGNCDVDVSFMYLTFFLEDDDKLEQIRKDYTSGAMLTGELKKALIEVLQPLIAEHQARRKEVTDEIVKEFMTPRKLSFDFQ
# Sequence of UniProt Q14242 (Q14242 42-412): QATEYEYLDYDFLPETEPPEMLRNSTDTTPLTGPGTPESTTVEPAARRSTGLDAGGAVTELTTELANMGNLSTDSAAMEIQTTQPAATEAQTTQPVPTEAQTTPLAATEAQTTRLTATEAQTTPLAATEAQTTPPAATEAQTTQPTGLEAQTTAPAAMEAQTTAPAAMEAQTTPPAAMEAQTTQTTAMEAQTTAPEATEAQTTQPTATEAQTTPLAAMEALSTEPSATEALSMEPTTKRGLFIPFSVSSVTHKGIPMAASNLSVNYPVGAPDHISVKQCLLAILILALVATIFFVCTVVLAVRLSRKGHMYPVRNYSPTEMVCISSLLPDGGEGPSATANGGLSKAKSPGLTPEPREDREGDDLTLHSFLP
substance,measurement,setting,value
enterovirus 71 (EV-A71) virus,co-localization coefficient (R),[1],0.655
same,co-localization coefficient (R),[2],0.501
same,co-localization coefficient (R),[3],0.432

# Source: US20190358326A1
